B1: thrombospondin-4 (TSP-4), recombinant full-length rat, N-terminal double strep II-tag (natural protein)
chain: not shown
notes: thrombospondin-4, rat, called full-length; the PCR product lacks the natural signal peptide and was cloned in frame with the BM-40 signal peptide; A thrombin cleavage site lies between the tag and the protein; Pentamer held by interchain disulphide bonds; glycosylated; also called full-length pentameric TSP-4; source: HEK293-EBNA, secreted, purified from culture supernatant (streptactin-sepharose)
B2: thrombospondin-2 (TSP-2), recombinant full-length murine, N-terminal double strep II-tag (natural protein)
chain: not shown
notes: thrombospondin-2, mouse, called full-length; the PCR product lacks the natural signal peptide and was cloned in frame with the BM-40 signal peptide; A thrombin cleavage site lies between the tag and the protein; Trimer held by interchain disulphide bonds; heavily glycosylated; source: HEK293-EBNA, secreted, purified from culture supernatant (streptactin-sepharose)
B3: cartilage oligomeric matrix protein (COMP, TSP-5), recombinant full-length rat, N-terminal double strep II-tag (natural protein)
chain: not shown
notes: cartilage oligomeric matrix protein, rat, called full-length; the PCR product lacks the natural signal peptide and was cloned in frame with the BM-40 signal peptide; A thrombin cleavage site lies between the tag and the protein; Pentamer held by interchain disulphide bonds; also called TSP-5/COMP; source: HEK293-EBNA, secreted, purified from culture supernatant (streptactin-sepharose)

Molecular target: the molecule itself
Assay: SDS-PAGE and immunoblot without and with DTT; purified proteins separated under non-reducing and reducing conditions; composite agarose/polyacrylamide gel for intact TSPs; oligomers held by interchain disulphide bonds

Row | Protein | stoichiometry N
1 | B1 | 5
2 | B2 | 3
3 | B3 | 5

Reference: PMC6838084, “Direct, gabapentin-insensitive interaction of a soluble form of the calcium channel subunit α2δ-1 with thrombospondin-4” (Scientific Reports, 2019)
